The values that follow come from US20140087995A1 (published 2014).

A word on the IC50: it is the midpoint of a concentration-inhibition curve.

The target in the experiment is T1, human amylin receptor (amylin 3(a) receptor: human calcitonin receptor with RAMP-3) (human, UniProt P30988 25-474; O60896 24-148).
T1 construct: whole, on cells; also called hAmylin-R; hAmylinR
T1 sequence (looked up) 1: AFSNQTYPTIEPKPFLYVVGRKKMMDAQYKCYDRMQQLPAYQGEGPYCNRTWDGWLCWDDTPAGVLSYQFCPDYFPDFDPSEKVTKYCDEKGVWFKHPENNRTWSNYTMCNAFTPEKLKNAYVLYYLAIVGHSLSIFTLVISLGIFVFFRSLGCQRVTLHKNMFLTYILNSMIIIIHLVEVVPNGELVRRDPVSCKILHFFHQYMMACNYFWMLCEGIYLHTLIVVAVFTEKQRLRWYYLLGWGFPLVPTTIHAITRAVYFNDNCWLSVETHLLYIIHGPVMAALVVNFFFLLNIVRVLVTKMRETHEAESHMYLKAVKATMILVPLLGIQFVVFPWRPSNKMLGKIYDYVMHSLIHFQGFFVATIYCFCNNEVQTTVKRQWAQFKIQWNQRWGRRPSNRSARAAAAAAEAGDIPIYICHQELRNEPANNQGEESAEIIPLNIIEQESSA
T1 sequence (looked up) 2: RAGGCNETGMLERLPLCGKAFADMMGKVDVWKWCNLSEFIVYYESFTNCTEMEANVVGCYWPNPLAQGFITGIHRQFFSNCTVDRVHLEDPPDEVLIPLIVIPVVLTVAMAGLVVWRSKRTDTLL
Put plainly: SPA displacement of 125I-rat amylin, hAmylin 3(a) receptor membranes. In outline:
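Cell membranes were prepared by homogenisation in Na-HEPES/EDTA buffer, pH 7.4, and stored at −80° C. They were then coupled to SPA beads at 35 ng/μL final and exposed to compounds in assay buffer containing CaCl2, MgCl₂, OA and Tween20. After 120 min at 25° C, plates were counted and IC₅₀ derived.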
Background: In a radioligand displacement assay an active substance lowers the binding of a labelled ligand.

Numbered stars: 1 amine (or outer) side, 2 acyl side, 3 side chain; on linkers, the order of the positions; unused ones are H or OH. Bridge positions count the residues as written; N and C are the ends. Side chains are listed from the residue outwards. Ends that are not written are not given here. * marks the point of attachment. C20 diacid = O=C(O)CCCCCCCCCCCCCCCCCCC(=O)*; γGlu = O=C(O)[C@H](CCC(=O)[*:2])N[*:1]; AEEA = NCCOCCOCC(=O)O

B1: N^-1-[(4S)-4-carboxy-4-(19-carboxynonadecanoylamino)butanoyl]-Gly[Arg1,Arg17,Pro21,Pro27]-h-amylin (peptide)
peptide: {C20 diacid-γGlu}-GRCNTATCATQRLANFLRHSSPNFGAIPSSTNVGSNTY-NH2
modifications: disulfide 3-8
SMILES: CC[C@H](C)[C@H](NC(=O)[C@H](C)NC(=O)CNC(=O)[C@H](Cc1ccccc1)NC(=O)[C@H](CC(N)=O)NC(=O)[C@@H]1CCCN1C(=O)[C@H](CO)NC(=O)[C@H](CO)NC(=O)[C@H](Cc1c[nH]cn1)NC(=O)[C@H](CCCNC(=N)N)NC(=O)[C@H](CC(C)C)NC(=O)[C@H](Cc1ccccc1)NC(=O)[C@H](CC(N)=O)NC(=O)[C@H](C)NC(=O)[C@H](CC(C)C)NC(=O)[C@H](CCCNC(=N)N)NC(=O)[C@H](CCC(N)=O)NC(=O)[C@@H](NC(=O)[C@H](C)NC(=O)[C@@H]1CSSC[C@H](NC(=O)[C@H](CCCNC(=N)N)NC(=O)CNC(=O)CC[C@H](NC(=O)CCCCCCCCCCCCCCCCCCC(=O)O)C(=O)O)C(=O)N[C@@H](CC(N)=O)C(=O)N[C@@H]([C@@H](C)O)C(=O)N[C@@H](C)C(=O)N[C@@H]([C@@H](C)O)C(=O)N1)[C@@H](C)O)C(=O)N1CCC[C@H]1C(=O)N[C@@H](CO)C(=O)N[C@@H](CO)C(=O)N[C@H](C(=O)N[C@@H](CC(N)=O)C(=O)N[C@H](C(=O)NCC(=O)N[C@@H](CO)C(=O)N[C@@H](CC(N)=O)C(=O)N[C@H](C(=O)N[C@@H](Cc1ccc(O)cc1)C(N)=O)[C@@H](C)O)C(C)C)[C@@H](C)O
notes: also called 46; compound 46
B1: the IC50 was determined as 0.195 nM.

B2: N^ε-[2-[2-[2-[[(4S)-4-carboxy-4-(19-carboxynonadecanoylamino)butanoyl]amino]ethoxy]ethoxy]acetyl]Lys[Arg1,Arg17,Pro21,Pro27,His35]-h-amylin (peptide)
peptide: K([AEEA-γGlu-C20 diacid])RCNTATCATQRLANFLRHSSPNFGAIPSSTNVGSHTY-NH2
modifications: disulfide 3-8; N-terminus assumed
SMILES: CC[C@H](C)[C@H](NC(=O)[C@H](C)NC(=O)CNC(=O)[C@H](Cc1ccccc1)NC(=O)[C@H](CC(N)=O)NC(=O)[C@@H]1CCCN1C(=O)[C@H](CO)NC(=O)[C@H](CO)NC(=O)[C@H](Cc1c[nH]cn1)NC(=O)[C@H](CCCNC(=N)N)NC(=O)[C@H](CC(C)C)NC(=O)[C@H](Cc1ccccc1)NC(=O)[C@H](CC(N)=O)NC(=O)[C@H](C)NC(=O)[C@H](CC(C)C)NC(=O)[C@H](CCCNC(=N)N)NC(=O)[C@H](CCC(N)=O)NC(=O)[C@@H](NC(=O)[C@H](C)NC(=O)[C@@H]1CSSC[C@H](NC(=O)[C@H](CCCNC(=N)N)NC(=O)[C@@H](N)CCCCNC(=O)COCCOCCNC(=O)CC[C@H](NC(=O)CCCCCCCCCCCCCCCCCCC(=O)O)C(=O)O)C(=O)N[C@@H](CC(N)=O)C(=O)N[C@@H]([C@@H](C)O)C(=O)N[C@@H](C)C(=O)N[C@@H]([C@@H](C)O)C(=O)N1)[C@@H](C)O)C(=O)N1CCC[C@H]1C(=O)N[C@@H](CO)C(=O)N[C@@H](CO)C(=O)N[C@H](C(=O)N[C@@H](CC(N)=O)C(=O)N[C@H](C(=O)NCC(=O)N[C@@H](CO)C(=O)N[C@@H](Cc1c[nH]cn1)C(=O)N[C@H](C(=O)N[C@@H](Cc1ccc(O)cc1)C(N)=O)[C@@H](C)O)C(C)C)[C@@H](C)O
notes: also called 45; compound 45
In the case of B2, the IC50 amounted to 0.552 nM.
